Source: publication PMC10786891, “Massively parallel profiling of RNA-targeting CRISPR-Cas13d”
Positions count from the first letter of the chain named. Names and notes keep the numbering of the source.

Target: T1, EsCas13d, nuclease-dead (Eubacterium siraeum, UniProt B0MS50, R295A;H300A;R849A;H854A)
T1 sequence: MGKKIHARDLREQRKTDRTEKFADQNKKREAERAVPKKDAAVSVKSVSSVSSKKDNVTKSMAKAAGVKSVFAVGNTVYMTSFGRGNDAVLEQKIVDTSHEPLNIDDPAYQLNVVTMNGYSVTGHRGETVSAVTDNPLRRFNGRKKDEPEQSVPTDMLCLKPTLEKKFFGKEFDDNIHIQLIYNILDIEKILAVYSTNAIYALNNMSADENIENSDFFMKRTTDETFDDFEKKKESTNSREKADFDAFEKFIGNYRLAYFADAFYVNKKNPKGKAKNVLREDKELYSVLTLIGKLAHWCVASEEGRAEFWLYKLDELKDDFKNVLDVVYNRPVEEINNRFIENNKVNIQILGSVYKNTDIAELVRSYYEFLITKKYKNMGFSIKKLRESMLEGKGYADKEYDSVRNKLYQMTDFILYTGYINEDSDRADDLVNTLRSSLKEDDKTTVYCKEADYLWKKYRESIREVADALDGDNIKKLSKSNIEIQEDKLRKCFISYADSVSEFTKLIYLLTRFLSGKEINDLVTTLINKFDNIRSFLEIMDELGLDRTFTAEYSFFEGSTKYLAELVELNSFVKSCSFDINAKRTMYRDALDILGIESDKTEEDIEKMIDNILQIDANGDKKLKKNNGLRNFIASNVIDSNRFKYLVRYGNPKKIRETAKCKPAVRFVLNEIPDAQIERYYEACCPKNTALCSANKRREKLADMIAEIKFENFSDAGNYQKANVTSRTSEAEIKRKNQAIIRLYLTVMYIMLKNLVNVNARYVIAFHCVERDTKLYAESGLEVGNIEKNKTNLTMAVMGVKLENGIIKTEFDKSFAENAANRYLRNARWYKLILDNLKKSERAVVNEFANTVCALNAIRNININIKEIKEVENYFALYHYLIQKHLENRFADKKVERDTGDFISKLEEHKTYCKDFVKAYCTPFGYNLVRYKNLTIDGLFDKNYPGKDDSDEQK
Test: crRNA (strand 1, pre-loaded); Mg2+; 40 mM Tris-HCl pH 7.5, 150 mM NaCl, 6 mM MgCl2, 1 mM DTT, 0.1% Tween-20, 0.2 mg/ml BSA; 25 C; 10 min per concentration, then washed
Conditions: tags: His6-TwinStrep-SUMO cleaved; N-terminal SNAP kept (SNAP-Surface 488); label: 3' end held by stalled T7 RNA polymerase

B1: target 1 MT 5'PFS AGG 3'PFS UAC (mixed)
RNA 1: CACCCGUGCAAAAAUGCAGGGGUCUAAAACUGAGCGGAUAACCUCUCUAUGG
RNA 2: GGGAAUGGAUCCACAUCUACGAAUUCAGGCCAUAGAGAGGUUAUCCGCUCAUACAGAUCGGAAGAGCACACGU
Kd: 32 ± 13 nM

B2: target 1 MT 5'PFS UUG 3'PFS UGU (mixed)
RNA 1: B1 RNA 1
RNA 2: B1 RNA 2 with A27U, G28U, A53G, C54U
Kd: 51 ± 11.5 nM

B3: target 1 MT 5'PFS UCG 3'PFS UGA (mixed)
RNA 1: B1 RNA 1
RNA 2: B1 RNA 2 with A27U, G28C, A53G, C54A
Kd: 33 ± 9.5 nM

B4: target 1 MT 5'PFS GCC 3'PFS CGC (mixed)
RNA 1: B1 RNA 1
RNA 2: B1 RNA 2 with A27G, G28C, G29C, U52C, A53G
Kd: 15.5 ± 6 nM

B5: target 1 MT 5'PFS UAA 3'PFS AGG (mixed)
RNA 1: B1 RNA 1
RNA 2: B1 RNA 2 with A27U, G28A, G29A, U52A, A53G, C54G
Kd: ~75 nM

B6: target 1 MT 5'PFS UAA 3'PFS CAG (mixed)
RNA 1: B1 RNA 1
RNA 2: B1 RNA 2 with A27U, G28A, G29A, U52C, C54G
Kd: 53 ± 22 nM

B7: target 1 MT 5'PFS CUG 3'PFS AUG (mixed)
RNA 1: B1 RNA 1
RNA 2: B1 RNA 2 with A27C, G28U, U52A, A53U, C54G
Kd: 33.5 ± 8 nM

B8: target 1 MT 5'PFS AAG 3'PFS UAC (mixed)
RNA 1: B1 RNA 1
RNA 2: B1 RNA 2 with G28A
Kd: 24 ± 7 nM

B9: target 1 MT 5'PFS UAA 3'PFS CAA (mixed)
RNA 1: B1 RNA 1
RNA 2: B1 RNA 2 with A27U, G28A, G29A, U52C, C54A
Kd: ~52.5 nM

B10: target 1 MT 5'PFS GCC 3'PFS UGU (mixed)
RNA 1: B1 RNA 1
RNA 2: B1 RNA 2 with A27G, G28C, G29C, A53G, C54U
Kd: 20 ± 5 nM

B11: target 1 G13C,G15U (mixed)
RNA 1: B1 RNA 1
RNA 2: B1 RNA 2 with A27G, G28U, G29A, G37U, G39C, U52C, A53C, C54G
Kd: 66 ± 18 nM

B12: target 1 MT 5'PFS GCU 3'PFS CAU (mixed)
RNA 1: B1 RNA 1
RNA 2: B1 RNA 2 with A27G, G28C, G29U, U52C, C54U
Kd: 51 ± 15 nM

B13: target 1 MT 5'PFS UGG 3'PFS UCG (mixed)
RNA 1: B1 RNA 1
RNA 2: B1 RNA 2 with A27U, A53C, C54G
Kd: 71.5 ± 22.5 nM

B14: target 1 MT 5'PFS UAA 3'PFS AGA (mixed)
RNA 1: B1 RNA 1
RNA 2: B1 RNA 2 with A27U, G28A, G29A, U52A, A53G, C54A
Kd: 37 ± 6.5 nM

B15: target 1 MT 5'PFS CUG 3'PFS AUU (mixed)
RNA 1: B1 RNA 1
RNA 2: B1 RNA 2 with A27C, G28U, U52A, A53U, C54U
Kd: 6.05 ± 1.6 nM

B16: target 1 insG 3' of 14,insG 3' of 8 (mixed)
RNA 1: B1 RNA 1
RNA 2: GGGAAUGGAUCCACAUCUACGAAUUCGUACCAUAGAGAGGGUUAUGCCGCUCACCGAGAUCGGAAGAGCACACGU
Kd: 9.7 ± 0.7 nM

B17: target 1 MT 5'PFS GCC 3'PFS UGC (mixed)
RNA 1: B1 RNA 1
RNA 2: B1 RNA 2 with A27G, G28C, G29C, A53G
Kd: 9 ± 1.35 nM

B18: target 1 MT 5'PFS AGG 3'PFS UAU (mixed)
RNA 1: B1 RNA 1
RNA 2: B1 RNA 2 with C54U
Kd: 35 ± 16.5 nM

B19: target 1 MT 5'PFS CAG 3'PFS UGA (mixed)
RNA 1: B1 RNA 1
RNA 2: B1 RNA 2 with A27C, G28A, A53G, C54A
Kd: ~60 nM

B20: target 1 MT 5'PFS AGG 3'PFS UCC (mixed)
RNA 1: B1 RNA 1
RNA 2: B1 RNA 2 with A53C
Kd: 49 ± 19 nM

B21: target 1 MT 5'PFS GCC 3'PFS CGA (mixed)
RNA 1: B1 RNA 1
RNA 2: B1 RNA 2 with A27G, G28C, G29C, U52C, A53G, C54A
Kd: 18.5 ± 7.5 nM

B22: target 1 MT 5'PFS GCC 3'PFS CGG (mixed)
RNA 1: B1 RNA 1
RNA 2: B1 RNA 2 with A27G, G28C, G29C, U52C, A53G, C54G
Kd: 26.1 ± 9.1 nM

B23: target 1 MT 5'PFS GCU 3'PFS CAA (mixed)
RNA 1: B1 RNA 1
RNA 2: B1 RNA 2 with A27G, G28C, G29U, U52C, C54A
Kd: ~60 nM

B24: target 1 MT 5'PFS UCC 3'PFS UUG (mixed)
RNA 1: B1 RNA 1
RNA 2: B1 RNA 2 with A27U, G28C, G29C, A53U, C54G
Kd: 13.3 ± 2.45 nM

B25: target 1 MT 5'PFS UAC 3'PFS AUU (mixed)
RNA 1: B1 RNA 1
RNA 2: B1 RNA 2 with A27U, G28A, G29C, U52A, A53U, C54U
Kd: 26.5 ± 8 nM

B26: target 1 MT 5'PFS CUG 3'PFS AUA (mixed)
RNA 1: B1 RNA 1
RNA 2: B1 RNA 2 with A27C, G28U, U52A, A53U, C54A
Kd: 5.05 ± 1.4 nM

B27: target 1 MT 5'PFS GCC 3'PFS CGU (mixed)
RNA 1: B1 RNA 1
RNA 2: B1 RNA 2 with A27G, G28C, G29C, U52C, A53G, C54U
Kd: 10.1 ± 1.65 nM

B28: target 1 MT 5'PFS UGG 3'PFS UCA (mixed)
RNA 1: B1 RNA 1
RNA 2: B1 RNA 2 with A27U, A53C, C54A
Kd: 70 ± 29 nM

B29: target 1 MT 5'PFS GCC 3'PFS UGA (mixed)
RNA 1: B1 RNA 1
RNA 2: B1 RNA 2 with A27G, G28C, G29C, A53G, C54A
Kd: 11.8 ± 2.3 nM

B30: target 1 MT 5'PFS UAC 3'PFS AUG (mixed)
RNA 1: B1 RNA 1
RNA 2: B1 RNA 2 with A27U, G28A, G29C, U52A, A53U, C54G
Kd: 43 ± 20.5 nM

B31: target 1 U3G,G15A (mixed)
RNA 1: B1 RNA 1
RNA 2: B1 RNA 2 with A27G, G28U, G29A, G37A, U49G, U52C, A53C, C54G
Kd: 17.5 ± 1 nM

B32: target 1 MT 5'PFS ACG 3'PFS UAA (mixed)
RNA 1: B1 RNA 1
RNA 2: B1 RNA 2 with G28C, C54A
Kd: 13.5 ± 5 nM

B33: target 1 MT 5'PFS UCC 3'PFS UUU (mixed)
RNA 1: B1 RNA 1
RNA 2: B1 RNA 2 with A27U, G28C, G29C, A53U, C54U
Kd: 11 ± 4 nM

B34: target 1 MT 5'PFS CCC 3'PFS UAA (mixed)
RNA 1: B1 RNA 1
RNA 2: B1 RNA 2 with A27C, G28C, G29C, C54A
Kd: ~11 nM

B35: target 1 MT 5'PFS AGG 3'PFS UAG (mixed)
RNA 1: B1 RNA 1
RNA 2: B1 RNA 2 with C54G
Kd: 23 ± 6.5 nM
